Test results published in patent US10280205B2, “Method for treating cancer with an activated T lymphocyte that selectively recognizes a cancer cell consisting of specific peptide” (immatics biotechnologies GmbH, priority 2015, dated 2019).

The substances below were run against HLA-A*02:01 (Homo sapiens, UniProt P04439, D140Y/D185E/D98H/E176V/E277Q/G131W/G231S/I119V/I121R/I166T/I218V/L300P/L318F/N151K/N90K/P208A/P217A/Q86G/Q94H/R138H/R169H/T345S) (assay: MHC binding assay: UV-ligand exchange with beta2m ELISA (exchange yield)). Details: binding to HLA-A*02:01, β2m ELISA.
Outline: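 Peptide–HLA-A*02:01 complexes formed by UV-induced exchange of a photocleavable ligand for the test peptide. Exchange products diluted 100-fold and captured on streptavidin-coated plates. Stabilized complexes detected with HRP anti-β2m (1 h, 37° C.) and TMB, A450; exchange yield reported.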

Substance	Peptide exchange (MHC class I binding score, peptide exchange yield)
428 (KLGHTDILVGV; listed as Homo sapiens) [compound 428]	“++” (≥20% = ++)
595 (VLLSIYPRV; listed as Homo sapiens) [compound 595]	“+++” (≥50 = +++)
49 (YLPAVFEEV; listed as Homo sapiens) [compound 49]	“+++” (≥50 = +++)
365 (YVIDQGETDVYV; listed as Homo sapiens) [compound 365]	“+++” (≥50 = +++)
120 (ALLGIPLTLV; listed as Homo sapiens) [compound 120]	“+++” (≥50 = +++)
521 (MLLTKLPTI; listed as Homo sapiens) [compound 521]	“+++” (≥50 = +++)
204 (KIAENVEEV; listed as Homo sapiens) [compound 204]	“++” (≥20% = ++)
94 (YLIDIKTIAI; listed as Homo sapiens) [compound 94]	“++” (≥20% = ++)
397 (YLFGERLLEC; listed as Homo sapiens) [compound 397]	“+++” (≥50 = +++)
427 (ALLPLSPYL; listed as Homo sapiens) [compound 427]	“+++” (≥50 = +++)
126 (VLAYFLPEA; listed as Homo sapiens) [compound 126]	“++++” (≥75% = ++++)
67 (TLLAEALVTV; listed as Homo sapiens) [compound 67]	“+++” (≥50 = +++)
371 (FLQAHLHTA; listed as Homo sapiens) [compound 371]	“++++” (≥75% = ++++)
183 (FGLDLVTEL; listed as Homo sapiens) [compound 183]	“+++” (≥50 = +++)
566 (VIADGGIQNV; listed as Homo sapiens) [compound 566]	“++” (≥20% = ++)
320 (KMFEFVEPLL; listed as Homo sapiens) [compound 320]	“++++” (≥75% = ++++)
263 (LLVSNLDFGV; listed as Homo sapiens) [compound 263]	“+++” (≥50 = +++)
390 (ALFMKQIYL; listed as Homo sapiens) [compound 390]	“+++” (≥50 = +++)
403 (KLYDRILRV; listed as Homo sapiens) [compound 403]	“++” (≥20% = ++)
57 (TLAELQPPVQL; listed as Homo sapiens) [compound 57]	“+++” (≥50 = +++)
215 (QLINHLHAV; listed as Homo sapiens) [compound 215]	“+++” (≥50 = +++)
501 (LLDPNVKSIFV; listed as Homo sapiens) [compound 501]	“+++” (≥50 = +++)
71 (GILARIASV; listed as Homo sapiens) [compound 71]	“+++” (≥50 = +++)

Substance	Peptide exchange (MHC class I binding score, peptide exchange yield)
250 (ALSEEGLLVYL; listed as Homo sapiens) [compound 250]	“+++” (≥50 = +++)
132 (LLVEQPPLAGV; listed as Homo sapiens) [compound 132]	“+++” (≥50 = +++)
585 (ALWDLAADKQTL; listed as Homo sapiens) [compound 585]	“++++” (≥75% = ++++)
276 (ALFTFSPLTV; listed as Homo sapiens) [compound 276]	“+++” (≥50 = +++)
452 (ILLEHGADPNL; listed as Homo sapiens) [compound 452]	“+++” (≥50 = +++)
509 (FLFDTKPLIV; listed as Homo sapiens) [compound 509]	“+++” (≥50 = +++)
389 (LLADVTHLL; listed as Homo sapiens) [compound 389]	“++” (≥20% = ++)
308 (SQYSGQLHEV; listed as Homo sapiens) [compound 308]	“+++” (≥50 = +++)
605 (KLYEAVPQL; listed as Homo sapiens) [compound 605]	“+++” (≥50 = +++)
495 (FIFSEKPVFV; listed as Homo sapiens) [compound 495]	“+++” (≥50 = +++)
97 (SLINGSFLV; listed as Homo sapiens) [compound 97]	“+++” (≥50 = +++)
140 (YMDAPKAAL; listed as Homo sapiens) [compound 140]	“++” (≥20% = ++)
451 (LLLLDTVTMQV; listed as Homo sapiens) [compound 451]	“++” (≥20% = ++)
50 (SLSELEALM; listed as Homo sapiens) [compound 50]	“+++” (≥50 = +++)
70 (GLLDYPVGV; listed as Homo sapiens) [compound 70]	“+++” (≥50 = +++)
572 (ALADLIEKELSV; listed as Homo sapiens) [compound 572]	“+++” (≥50 = +++)
466 (VLIANLEKL; listed as Homo sapiens) [compound 466]	“++++” (≥75% = ++++)
76 (ILIDSIYKV; listed as Homo sapiens) [compound 76]	“+++” (≥50 = +++)
354 (LILEGVDTV; listed as Homo sapiens) [compound 354]	“++” (≥20% = ++)
461 (VMFRTPLASV; listed as Homo sapiens) [compound 461]	“++” (≥20% = ++)
46 (ILTEENIHL; listed as Homo sapiens) [compound 46]	“+++” (≥50 = +++)
232 (ALLEAQDVELYL; listed as Homo sapiens) [compound 232]	“++” (≥20% = ++)
436 (HLAEVSAEV; listed as Homo sapiens) [compound 436]	“+++” (≥50 = +++)

Substance	Peptide exchange (MHC class I binding score, peptide exchange yield)
505 (SLAPGDVVRQV; listed as Homo sapiens) [compound 505]	“++” (≥20% = ++)
117 (ILPDGEDFLAV; listed as Homo sapiens) [compound 117]	“+++” (≥50 = +++)
301 (FLVEDLVDSL; listed as Homo sapiens) [compound 301]	“+++” (≥50 = +++)
408 (VLDDSIYLV; listed as Homo sapiens) [compound 408]	“++” (≥20% = ++)
176 (YLMEGSYNKVFL; listed as Homo sapiens) [compound 176]	“++” (≥20% = ++)
346 (LLDSKVPSV; listed as Homo sapiens) [compound 346]	“+++” (≥50 = +++)
242 (AIAYILQGV; listed as Homo sapiens) [compound 242]	“++” (≥20% = ++)
21 (VLDELDMEL; listed as Homo sapiens) [compound 21]	“++” (≥20% = ++)
24 (SLSDGLEEV; listed as Homo sapiens) [compound 24]	“++” (≥20% = ++)
9 (GAAKDLPGV; listed as Homo sapiens) [compound 9]	“++” (≥20% = ++)
228 (AMQEYIAVV; listed as Homo sapiens) [compound 228]	“++” (≥20% = ++)
274 (SLLFSLFEA; listed as Homo sapiens) [compound 274]	“++” (≥20% = ++)
457 (SLLPGNLVEKV; listed as Homo sapiens) [compound 457]	“+++” (≥50 = +++)
606 (ALWETEVYI; listed as Homo sapiens) [compound 606]	“+++” (≥50 = +++)
137 (TLVLTLPTV; listed as Homo sapiens) [compound 137]	“++++” (≥75% = ++++)
615 (VLPPDTDPA; listed as Homo sapiens) [compound 615]	“++” (≥20% = ++)
85 (KMSELRVTL; listed as Homo sapiens) [compound 85]	“+++” (≥50 = +++)
530 (VMYADIGGMDI; listed as Homo sapiens) [compound 530]	“+++” (≥50 = +++)
407 (YLMDLINFL; listed as Homo sapiens) [compound 407]	“+++” (≥50 = +++)
159 (GLVGNPLPSV; listed as Homo sapiens) [compound 159]	“++++” (≥75% = ++++)
608 (SLLSVSHAL; listed as Homo sapiens) [compound 608]	“+++” (≥50 = +++)
